Measurements from the supplement of paper PMC9112550, “Optimization of the antimicrobial peptide Bac7 by deep mutational scanning” (BMC Biology, 2022).

Tested on: Escherichia coli TOP10
Experiment: shrunken log2 fold change of peptide-encoding DNA abundance (4.5 h post-induction vs induction); higher = less antimicrobial activity (less host growth inhibition)
Conditions: time post-induction: 4.5 h; library: site-saturation at positions 5, 18, 19, 20
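Note: peptides expressed intracellularly from a pBAD plasmid library in pooled LB shake-flask culture, induced with 0.3% L-arabinose, DNA abundance read by NGS, three biological replicates, DESeq2 with apeglm shrinkage.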

Sequence | shrunken log2 fold change
RRIRKRPPRLPRPRPRPFGQPRP | 0.783
RRIRKRPPRLPRPRPRPFHPPRP | -0.158
RRIRKRPPRLPRPRPRPFKAPRP | -0.111
RRIRKRPPRLPRPRPRPFKCPRP | -0.0191
RRIRKRPPRLPRPRPRPFKKPRP | 0.00557
RRIRKRPPRLPRPRPRPFKNPRP | -0.0646
RRIRKRPPRLPRPRPRPFLGPRP | 0.0561
RRIRKRPPRLPRPRPRPFLRPRP | 0.13
RRIRKRPPRLPRPRPRPFQVPRP | 0.0377
RRIRKRPPRLPRPRPRPFSMPRP | -0.489
RRIRKRPPRLPRPRPRPFSQPRP | -0.151
RRIRKRPPRLPRPRPRPFVFPRP | 0.277
RRIRKRPPRLPRPRPRPFVQPRP | 0.034
RRIRKRPPRLPRPRPRPGAIPRP | 0.238
RRIRKRPPRLPRPRPRPGAYPRP | 0.0945
RRIRKRPPRLPRPRPRPGCSPRP | 0.289
RRIRKRPPRLPRPRPRPGGFPRP | 0.223
RRIRKRPPRLPRPRPRPGHNPRP | -0.0457
RRIRKRPPRLPRPRPRPGHSPRP | -0.0124
RRIRKRPPRLPRPRPRPGKAPRP | -0.0571
RRIRKRPPRLPRPRPRPGKKPRP | -0.0204
RRIRKRPPRLPRPRPRPGLDPRP | 0.626
RRIRKRPPRLPRPRPRPGLRPRP | 0.708
RRIRKRPPRLPRPRPRPGMQPRP | -0.00459
RRIRKRPPRLPRPRPRPGNIPRP | -0.0196

Sequence | shrunken log2 fold change
RRIRKRPPRLPRPRPRPGNKPRP | -0.0985
RRIRKRPPRLPRPRPRPGNSPRP | -0.0266
RRIRKRPPRLPRPRPRPGPMPRP | 0.595
RRIRKRPPRLPRPRPRPGQHPRP | -0.000613
RRIRKRPPRLPRPRPRPGQSPRP | 0.306
RRIRKRPPRLPRPRPRPGREPRP | 0.913
RRIRKRPPRLPRPRPRPGRKPRP | 0.0872
RRIRKRPPRLPRPRPRPGRMPRP | 0.554
RRIRKRPPRLPRPRPRPGRNPRP | -0.105
RRIRKRPPRLPRPRPRPGSSPRP | -0.0653
RRIRKRPPRLPRPRPRPGTRPRP | 0.165
RRIRKRPPRLPRPRPRPGWDPRP | 0.364
RRIRKRPPRLPRPRPRPGWIPRP | 1.07
RRIRKRPPRLPRPRPRPHACPRP | 0.0691
RRIRKRPPRLPRPRPRPHAQPRP | 0.133
RRIRKRPPRLPRPRPRPHCFPRP | 0.0684
RRIRKRPPRLPRPRPRPHCGPRP | -0.0593
RRIRKRPPRLPRPRPRPHCWPRP | 0.17
RRIRKRPPRLPRPRPRPHIQPRP | -0.224
RRIRKRPPRLPRPRPRPHKAPRP | -0.0179
RRIRKRPPRLPRPRPRPHKEPRP | -0.0849
RRIRKRPPRLPRPRPRPHKIPRP | 0.134
RRIRKRPPRLPRPRPRPHKTPRP | -0.0618
RRIRKRPPRLPRPRPRPHPRPRP | 1.27
RRIRKRPPRLPRPRPRPHQDPRP | 0.0154

Sequence | shrunken log2 fold change
RRIRKRPPRLPRPRPRPHRCPRP | 0.0753
RRIRKRPPRLPRPRPRPHSAPRP | 0.246
RRIRKRPPRLPRPRPRPHSCPRP | 0.0828
RRIRKRPPRLPRPRPRPHSPPRP | 0.16
RRIRKRPPRLPRPRPRPHSTPRP | -0.0637
RRIRKRPPRLPRPRPRPHTDPRP | -0.0857
RRIRKRPPRLPRPRPRPHVCPRP | -0.00289
RRIRKRPPRLPRPRPRPHVFPRP | 0.015
RRIRKRPPRLPRPRPRPHVYPRP | 0.22
RRIRKRPPRLPRPRPRPHWWPRP | 0.119
RRIRKRPPRLPRPRPRPHYMPRP | -0.0279
RRIRKRPPRLPRPRPRPHYSPRP | -0.257
RRIRKRPPRLPRPRPRPICRPRP | 0.0069
RRIRKRPPRLPRPRPRPIDPPRP | -0.0828
RRIRKRPPRLPRPRPRPIEMPRP | -0.202
RRIRKRPPRLPRPRPRPIFRPRP | 0.132
RRIRKRPPRLPRPRPRPIFSPRP | -0.143
RRIRKRPPRLPRPRPRPIFWPRP | 0.313
RRIRKRPPRLPRPRPRPIGNPRP | 0.0844
RRIRKRPPRLPRPRPRPIHRPRP | -0.0202
RRIRKRPPRLPRPRPRPIHVPRP | -0.0353
RRIRKRPPRLPRPRPRPIHYPRP | -0.15
RRIRKRPPRLPRPRPRPIIQPRP | 0.0837
RRIRKRPPRLPRPRPRPIISPRP | -0.132
RRIRKRPPRLPRPRPRPIIYPRP | 0.0162

Sequence | shrunken log2 fold change
RRIRKRPPRLPRPRPRPILPPRP | 2.29
RRIRKRPPRLPRPRPRPILTPRP | -0.149
RRIRKRPPRLPRPRPRPIPEPRP | 0.163
RRIRKRPPRLPRPRPRPIPRPRP | 1.3
RRIRKRPPRLPRPRPRPIQIPRP | -0.14
RRIRKRPPRLPRPRPRPIQRPRP | -0.0846
RRIRKRPPRLPRPRPRPIRQPRP | 0.0556
RRIRKRPPRLPRPRPRPISLPRP | 0.00252
RRIRKRPPRLPRPRPRPISTPRP | -0.218
RRIRKRPPRLPRPRPRPITKPRP | -0.0212
RRIRKRPPRLPRPRPRPIVPPRP | 0.269
RRIRKRPPRLPRPRPRPKCAPRP | 0.283
RRIRKRPPRLPRPRPRPKEDPRP | 0.795
RRIRKRPPRLPRPRPRPKERPRP | -0.0188
RRIRKRPPRLPRPRPRPKETPRP | 0.35
RRIRKRPPRLPRPRPRPKFFPRP | 0.219
RRIRKRPPRLPRPRPRPKHGPRP | 0.157
RRIRKRPPRLPRPRPRPKIGPRP | 0.295
RRIRKRPPRLPRPRPRPKKMPRP | 0.718
RRIRKRPPRLPRPRPRPKKTPRP | 0.0396
RRIRKRPPRLPRPRPRPKLPPRP | 0.244
RRIRKRPPRLPRPRPRPKMSPRP | -0.315
RRIRKRPPRLPRPRPRPKNCPRP | 0.0646
RRIRKRPPRLPRPRPRPKNLPRP | 0.177
RRIRKRPPRLPRPRPRPKPQPRP | 0.927

Sequence | shrunken log2 fold change
RRIRKRPPRLPRPRPRPKPSPRP | 0.743
RRIRKRPPRLPRPRPRPKQKPRP | 0.054
RRIRKRPPRLPRPRPRPKRCPRP | 0.309
RRIRKRPPRLPRPRPRPKREPRP | 0.393
RRIRKRPPRLPRPRPRPKRWPRP | 0.906
RRIRKRPPRLPRPRPRPKSEPRP | 0.0409
RRIRKRPPRLPRPRPRPKTKPRP | 0.411
RRIRKRPPRLPRPRPRPKTTPRP | 0.0195
RRIRKRPPRLPRPRPRPKVCPRP | -0.0666
RRIRKRPPRLPRPRPRPKYRPRP | -0.00889
RRIRKRPPRLPRPRPRPKYTPRP | -0.113
RRIRKRPPRLPRPRPRPLAMPRP | 0.486
RRIRKRPPRLPRPRPRPLCAPRP | 0.604
RRIRKRPPRLPRPRPRPLCYPRP | -0.213
RRIRKRPPRLPRPRPRPLDPPRP | 0.613
RRIRKRPPRLPRPRPRPLEHPRP | 0.156
RRIRKRPPRLPRPRPRPLEVPRP | 0.0569
RRIRKRPPRLPRPRPRPLFFPRP | 0.147
RRIRKRPPRLPRPRPRPLFLPRP | 0.115
RRIRKRPPRLPRPRPRPLGQPRP | 0.991
RRIRKRPPRLPRPRPRPLGSPRP | -0.115
RRIRKRPPRLPRPRPRPLKAPRP | 0.0198
RRIRKRPPRLPRPRPRPLKFPRP | -0.118
RRIRKRPPRLPRPRPRPLLDPRP | 0.246
RRIRKRPPRLPRPRPRPLNEPRP | 0.0114

Sequence | shrunken log2 fold change
RRIRKRPPRLPRPRPRPLNKPRP | -0.0644
RRIRKRPPRLPRPRPRPLQHPRP | 0.657
RRIRKRPPRLPRPRPRPLQKPRP | -0.0368
RRIRKRPPRLPRPRPRPLQVPRP | 0.333
RRIRKRPPRLPRPRPRPLQYPRP | -0.0563
RRIRKRPPRLPRPRPRPLRQPRP | 0.00205
RRIRKRPPRLPRPRPRPLRYPRP | 0.227
RRIRKRPPRLPRPRPRPLTYPRP | 0.0522
RRIRKRPPRLPRPRPRPLVCPRP | 0.191
RRIRKRPPRLPRPRPRPLWAPRP | 0.452
RRIRKRPPRLPRPRPRPLWMPRP | -0.0285
RRIRKRPPRLPRPRPRPLWWPRP | 0.477
RRIRKRPPRLPRPRPRPLYEPRP | 0.0468
RRIRKRPPRLPRPRPRPMAHPRP | -0.000911
RRIRKRPPRLPRPRPRPMENPRP | 0.0428
RRIRKRPPRLPRPRPRPMGSPRP | 0.0567
RRIRKRPPRLPRPRPRPMHEPRP | 0.191
RRIRKRPPRLPRPRPRPMHPPRP | 0.19
RRIRKRPPRLPRPRPRPMIFPRP | -0.132
RRIRKRPPRLPRPRPRPMIMPRP | -0.0451
RRIRKRPPRLPRPRPRPMKHPRP | -0.156
RRIRKRPPRLPRPRPRPMLVPRP | -0.0603
RRIRKRPPRLPRPRPRPMNWPRP | 0.134
RRIRKRPPRLPRPRPRPMPCPRP | -0.0242
RRIRKRPPRLPRPRPRPMPMPRP | 0.00883
